Data set [1] concerns the target T1, HisFlag-Mlh1;Mlh3 (Saccharomyces cerevisiae (S288c strain …, UniProt P38920;Q12083 1-769;1-715, |)).
T1 sequence 1: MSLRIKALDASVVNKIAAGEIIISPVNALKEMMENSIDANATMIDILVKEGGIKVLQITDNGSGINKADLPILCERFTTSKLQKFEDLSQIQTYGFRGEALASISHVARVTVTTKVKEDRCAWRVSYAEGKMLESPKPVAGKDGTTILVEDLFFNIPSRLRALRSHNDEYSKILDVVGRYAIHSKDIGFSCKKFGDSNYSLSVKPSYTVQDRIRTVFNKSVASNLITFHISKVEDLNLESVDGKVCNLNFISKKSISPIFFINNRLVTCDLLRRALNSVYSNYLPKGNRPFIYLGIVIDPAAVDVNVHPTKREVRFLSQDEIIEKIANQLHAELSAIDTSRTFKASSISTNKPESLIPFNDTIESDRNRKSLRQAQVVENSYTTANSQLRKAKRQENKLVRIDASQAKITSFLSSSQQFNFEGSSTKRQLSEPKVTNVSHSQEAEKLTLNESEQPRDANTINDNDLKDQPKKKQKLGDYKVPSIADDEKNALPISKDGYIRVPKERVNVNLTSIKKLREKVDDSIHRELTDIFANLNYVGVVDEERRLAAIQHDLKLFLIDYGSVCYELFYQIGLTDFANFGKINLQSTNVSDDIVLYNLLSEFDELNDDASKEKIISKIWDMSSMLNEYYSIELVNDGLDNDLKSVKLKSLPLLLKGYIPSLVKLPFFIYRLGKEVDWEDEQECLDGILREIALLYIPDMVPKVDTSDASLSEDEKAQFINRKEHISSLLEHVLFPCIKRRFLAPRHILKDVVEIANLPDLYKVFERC
T1 sequence 2: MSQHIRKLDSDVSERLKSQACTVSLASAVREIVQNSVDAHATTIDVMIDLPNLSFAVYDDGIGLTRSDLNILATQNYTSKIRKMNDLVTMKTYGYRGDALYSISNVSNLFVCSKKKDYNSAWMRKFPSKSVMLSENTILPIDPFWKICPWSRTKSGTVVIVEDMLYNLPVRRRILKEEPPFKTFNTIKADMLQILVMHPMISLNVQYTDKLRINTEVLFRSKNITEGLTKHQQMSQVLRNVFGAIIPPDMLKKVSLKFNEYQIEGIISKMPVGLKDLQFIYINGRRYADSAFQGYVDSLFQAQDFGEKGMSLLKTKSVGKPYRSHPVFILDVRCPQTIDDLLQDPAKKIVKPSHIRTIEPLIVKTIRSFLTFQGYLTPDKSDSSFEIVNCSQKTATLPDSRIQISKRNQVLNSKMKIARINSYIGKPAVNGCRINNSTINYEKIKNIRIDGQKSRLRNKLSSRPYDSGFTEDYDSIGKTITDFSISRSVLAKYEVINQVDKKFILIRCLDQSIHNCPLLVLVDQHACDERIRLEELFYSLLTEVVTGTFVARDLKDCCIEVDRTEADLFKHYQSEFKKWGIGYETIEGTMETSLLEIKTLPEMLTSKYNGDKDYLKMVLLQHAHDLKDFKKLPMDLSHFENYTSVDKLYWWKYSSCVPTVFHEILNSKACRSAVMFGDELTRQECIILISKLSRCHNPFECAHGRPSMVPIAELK
Kind of data set: EMSA; Hill slope 2.9 +/- 0.27; 5 mM EDTA; EMSA: 25 mM Tris-HCl pH 7.5, 15% glycerol, 100 mM NaCl, 2 mM DTT, 5 mM EDTA, 1 mg/ml BSA, 30 min 30 C, 1 nM DNA; pull-down: similar, 10% glycerol, 0.2 mg/ml BSA, 0.1% Triton X-100, 4 C. Conditions: protein: recombinant;recombinant; tags: N-terminal 6xHis-2xFlag;none; copies: 1;1; label: 5'-32P when used as probe.

For data set [2], the target named is T1, HisFlag-Mlh1;Mlh3. Kind of data set: FeBABE footprinting; cleavage in Mlh1 N-terminal domain and linker; EMSA: 25 mM Tris-HCl pH 7.5, 15% glycerol, 100 mM NaCl, 2 mM DTT, 5 mM EDTA, 1 mg/ml BSA, 30 min 30 C, 1 nM DNA; pull-down: similar, 10% glycerol, 0.2 mg/ml BSA, 0.1% Triton X-100, 4 C. As to conditions: protein: recombinant;recombinant; tags: N-terminal 6xHis-2xFlag;none; copies: 1;1; label: 3'-biotin.

Data set [3] concerns the target T2, Mlh1 untagged;HisFlag-Mlh3 (Saccharomyces cerevisiae (S288c strain …, UniProt P38920;Q12083 1-769;1-715, |)).
T2 sequence 1: T1 sequence 1
T2 sequence 2: T1 sequence 2
Kind of data set: FeBABE footprinting; cleavage in Mlh3 N-terminal domain and linker; EMSA: 25 mM Tris-HCl pH 7.5, 15% glycerol, 100 mM NaCl, 2 mM DTT, 5 mM EDTA, 1 mg/ml BSA, 30 min 30 C, 1 nM DNA; pull-down: similar, 10% glycerol, 0.2 mg/ml BSA, 0.1% Triton X-100, 4 C. Conditions: protein: recombinant;recombinant; tags: none;N-terminal 6xHis-2xFlag; copies: 1;1; label: 3'-biotin.

Data set [4] has as its target T1, HisFlag-Mlh1;Mlh3. As to the kind of experiment: competition; labeled poly-dT 80 nt; 500x excess in nt; EMSA: 25 mM Tris-HCl pH 7.5, 15% glycerol, 100 mM NaCl, 2 mM DTT, 5 mM EDTA, 1 mg/ml BSA, 30 min 30 C, 1 nM DNA; pull-down: similar, 10% glycerol, 0.2 mg/ml BSA, 0.1% Triton X-100, 4 C. Conditions: protein: recombinant;recombinant; tags: N-terminal 6xHis-2xFlag;none; copies: 1;1.

Data set [5] addresses T1, HisFlag-Mlh1;Mlh3. Kind of data set: EMSA; Hill slope 2.0 +/- 0.05; 5 mM EDTA; EMSA: 25 mM Tris-HCl pH 7.5, 15% glycerol, 100 mM NaCl, 2 mM DTT, 5 mM EDTA, 1 mg/ml BSA, 30 min 30 C, 1 nM DNA; pull-down: similar, 10% glycerol, 0.2 mg/ml BSA, 0.1% Triton X-100, 4 C. As to conditions: protein: recombinant;recombinant; tags: N-terminal 6xHis-2xFlag;none; copies: 1;1; label: 5'-32P when used as probe; four-way junction, 40 bp arms.

Data set [6] deals with T1, HisFlag-Mlh1;Mlh3. Kind of data set: FeBABE footprinting; mostly Mlh1 linker; EMSA: 25 mM Tris-HCl pH 7.5, 15% glycerol, 100 mM NaCl, 2 mM DTT, 5 mM EDTA, 1 mg/ml BSA, 30 min 30 C, 1 nM DNA; pull-down: similar, 10% glycerol, 0.2 mg/ml BSA, 0.1% Triton X-100, 4 C. As to conditions: protein: recombinant;recombinant; tags: N-terminal 6xHis-2xFlag;none; copies: 1;1; label: 3'-biotin on strand 1; four-way junction, 40 bp arms.

The target of data set [7] is T2, Mlh1 untagged;HisFlag-Mlh3. Kind of data set: FeBABE footprinting; Mlh3 linker enriched; EMSA: 25 mM Tris-HCl pH 7.5, 15% glycerol, 100 mM NaCl, 2 mM DTT, 5 mM EDTA, 1 mg/ml BSA, 30 min 30 C, 1 nM DNA; pull-down: similar, 10% glycerol, 0.2 mg/ml BSA, 0.1% Triton X-100, 4 C. As to conditions: protein: recombinant;recombinant; tags: none;N-terminal 6xHis-2xFlag; copies: 1;1; label: 3'-biotin on strand 1; four-way junction, 40 bp arms.

B1: ssDNA80 (cb099, poly-dT) (ssDNA)
DNA: TTTTTTTTTTTTTTTTTTTTTTTTTTTTTTTTTTTTTTTTTTTTTTTTTTTTTTTTTTTTTTTTTTTTTTTTTTTTTTTT
Regarding B1, the Kd in data set [1] worked out at 45.9 nM.

B2: ssDNA+ (cb361) (ssDNA)
DNA: B1 DNA
modifications: phosphorothioates every 8 nt, FeBABE-conjugated
Consider B2, for which the binding result in data set [2] and in data set [3] was “binds” throughout.

As for TTTTTTTTTT (ssDNA) [ssDNA 10 nt competitor (poly-dT?)], in data set [4], the binding result was “no binding”.

B3: HJ80 (cb095-098) (structured_DNA)
DNA 1: CTAGTATAGAGCCGGCGCGCCATGTCTAGATAGCGTTAGGTCTGCCGAATAGTACTACTCGGATCCCGAGCGAACCACGC
DNA 2: GCGTGGTTCGCTCGGGATCCGAGTAGTACTATTCGGCAGAGGATTCGAATAGGCCTAATCGAATTCCGCCATCGATGCAC
DNA 3: GTGCATCGATGGCGGAATTCGATTAGGCCTATTCGAATCCAGACGCGAGTAGATCTTCACGGTACCCGCGGTTACCCGTG
DNA 4: CACGGGTAACCGCGGGTACCGTGAAGATCTACTCGCGTCTCCTAACGCTATCTAGACATGGCGCGCCGGCTCTATACTAG
Turning to B3, in data set [5], the Kd worked out at 72.9 nM.

B4: HJ+1 (cb256, 351, 369, 98) (structured_DNA)
DNA 1: B3 DNA 1
DNA 2: B3 DNA 2
DNA 3: B3 DNA 3
DNA 4: B3 DNA 4
modifications: phosphorothioates in strands 2 and 3 (segment 1), FeBABE-conjugated
B4: the binding result in data set [6] and in data set [7] was “binds” in each case.

The record behind these values is PMC5448812, “Distinct DNA-binding surfaces in the ATPase and linker domains of MutLγ determine its substrate specificities and exert separable functions in meiotic recombination and mismatch repair”.
